± gives the standard deviation of the averaged measurements.
The sequences below were run on ATP (assay: switch fluorescence ratio, 500 uM ATP over buffer (Cy3 cluster intensity, sum of 5 cycles each) (fold (ratio)); higher = stronger signal-on switching upon ATP binding; sequences stand for … in TCGTCGGCAGCGTCAGATGTGTATAAGAGACAGTTTTTTTTTTTTTTTTTTTTTTTTT…TC). Settings: aptamer strand: ATP DNA aptamer (quencher-CACCTGGGGGAGTATTGCGGAGGAAGG + anchor), 100 nM annealed; ATP concentration: 500 uM.
In short: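 Five buffer/ATP imaging cycles were run on Cy3-labelled switching-strand clusters on a modified Illumina MiSeq flow-cell, with NaOH stripping and re-annealing between cycles. In each cycle, clusters annealed to 100 nM quencher-labelled ATP aptamer were imaged in selection buffer, then after 15 min with 500 uM ATP at 22 °C. Per cluster, the fluorescence ratio is summed target-cycle over summed buffer-cycle Cy3 intensity, averaged per switch-domain sequence. Only clusters within 100-1000 RFU were kept.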
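Also: ATP exposure 15 min at 22 °C before imaging.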

TTGCACAATT and ATTAGTAACG are within error of each other in switch fluorescence ratio: 1.01 ± 0.057 for the first, 1.03 ± 0.0071 for the second.

GCAAACTAGG and TTAATGGGAC are within error of each other in switch fluorescence ratio: 1.11 ± 0.17 for the first, 1.012 ± 0.0033 for the second.

AGGAGGGGTC and TTTTTTAGGC are within error of each other in switch fluorescence ratio: 1.01 ± 0.048 for the first, 0.962 ± 0.041 for the second.

Compared with TAGATTGTTT, CGTGGGGATA is higher in switch fluorescence ratio: 0.998 ± 0.021 for the first, 1.031 ± 0.009 for the second.

CTGTTTTTTG and GTTTGAGGCG are within error of each other in switch fluorescence ratio: 0.976 ± 0.03 for the first, 1 ± 0.012 for the second.

Going from ACCTTTTTTG to ACTGGGTTTT, the switch fluorescence ratio rises from 0.992 ± 0.024 to 1.022 ± 0.0022.

TGAGAGGCGA and TCCTGATTCT are within error of each other in switch fluorescence ratio: 1.01 ± 0.011 for the first, 1.03 ± 0.033 for the second.

First: TGGCAAATGT
Second: CTAGATTGGG
The switch fluorescence ratio of the first is lower: 0.9818 ± 0.0049 for the first, 1.015 ± 0.0043 for the second.

TTTTTTGGT and TGATAACTCC are within error of each other in switch fluorescence ratio: 0.986 ± 0.016 for the first, 1.03 ± 0.036 for the second.

First: TCTCAAAAAT
Second: TAGGGGGTTG
The switch fluorescence ratio of the first is higher: 1.1 ± 0.025 for the first, 0.987 ± 0.027 for the second.

AGTTTTCATG and TCCCGGGACA are within error of each other in switch fluorescence ratio: 1.02 ± 0.017 for the first, 1.79 ± 1.1 for the second.

TTCTCCGGGT and AGTGCTGATG are within error of each other in switch fluorescence ratio: 1.24 ± 0.32 for the first, 0.998 ± 0.02 for the second.

GGTTGGCCGC and TTTTCGAATA are within error of each other in switch fluorescence ratio: 1.02 ± 0.032 for the first, 1.009 ± 0.005 for the second.

Compared with AAGTACAGCG, GGCCCGTTAC is higher in switch fluorescence ratio: 1.03 ± 0.026 for the first, 1.63 ± 0.2 for the second.

TCTAAAAAGG and TGTTGCATAG are within error of each other in switch fluorescence ratio: 0.998 ± 0.025 for the first, 1.01 ± 0.047 for the second.

CATCAAAAAT and GATTGGGGGT are within error of each other in switch fluorescence ratio: 1.29 ± 0.3 for the first, 0.982 ± 0.03 for the second.

CGGACTGGGA and GTTTTGGGGA are within error of each other in switch fluorescence ratio: 1.007 ± 0.0052 for the first, 0.996 ± 0.011 for the second.

TAGAATCCG and GCATGCGCTC are within error of each other in switch fluorescence ratio: 1.003 ± 0.009 for the first, 1.05 ± 0.052 for the second.

Going from AACTGACGAA to ATTTAAGAGG, the switch fluorescence ratio falls from 1.29 ± 0.019 to 1 ± 0.041.

GCATTTGGTT and ATTGGGGGGC are the same in switch fluorescence ratio: 1.01 ± 0.012 for the first, 1.01 ± 0.036 for the second.

GCTAGTTGGG and TTTTTTTTCC are within error of each other in switch fluorescence ratio: 0.9998 ± 0.0015 for the first, 1.15 ± 0.4 for the second.

Compared with CGGGTGTGAG, CGATCGTAAT is higher in switch fluorescence ratio: 1.006 ± 0.0055 for the first, 2.1 ± 0.036 for the second.

TTTGGCGAGT and TTTTTGCATC are within error of each other in switch fluorescence ratio: 1.01 ± 0.021 for the first, 1.2 ± 0.27 for the second.

TCCAGAGATG and AAATTTCTTT are within error of each other in switch fluorescence ratio: 0.997 ± 0.028 for the first, 0.996 ± 0.016 for the second.

GGCGAAGGGT and TATCAGTCGT are within error of each other in switch fluorescence ratio: 0.98 ± 0.012 for the first, 0.988 ± 0.032 for the second.

TTTAAGAGAA and GGGGGTCGGG are the same in switch fluorescence ratio: 1.001 ± 0.0059 for the first, 1 ± 0.036 for the second.

TACAGAGGCA and TTATAGGGAC are within error of each other in switch fluorescence ratio: 1.02 ± 0.031 for the first, 1 ± 0.015 for the second.

AAAGAGAGAC and CGGGGGCTG are within error of each other in switch fluorescence ratio: 1.0086 ± 0.00021 for the first, 1 ± 0.039 for the second.

GGGGGTTTGC and GCTGGTTTAG are within error of each other in switch fluorescence ratio: 0.991 ± 0.059 for the first, 1.006 ± 0.0039 for the second.

First: TCATTGGCAT
Second: TGTGGCACGG
The switch fluorescence ratio of the first is higher: 1.03 ± 0.037 for the first, 0.966 ± 0.018 for the second.

TTGAATTATT and GTGGGTTAGG are within error of each other in switch fluorescence ratio: 1.03 ± 0.013 for the first, 0.996 ± 0.031 for the second.

TACCACTTTG and TGATTGGGGA are within error of each other in switch fluorescence ratio: 1.24 ± 0.29 for the first, 1.005 ± 0.0043 for the second.

TAACGGGAGG and TTGGTCCGTC are within error of each other in switch fluorescence ratio: 0.998 ± 0.017 for the first, 1.01 ± 0.047 for the second.

GGGTCTGTAA and TTATACAGGA are within error of each other in switch fluorescence ratio: 1.42 ± 0.61 for the first, 1.019 ± 0.0057 for the second.

TAAGCTGTCA and GACACGGAAA are within error of each other in switch fluorescence ratio: 0.965 ± 0.064 for the first, 1.23 ± 0.29 for the second.

Going from GCTAGTGGTG to AGGAAGTCTT, the switch fluorescence ratio falls from 1.04 ± 0.018 to 0.941 ± 0.021.

CGATGTCGCG and GCAGCATGTG are within error of each other in switch fluorescence ratio: 0.989 ± 0.028 for the first, 1.04 ± 0.026 for the second.

TTGATAGGGT and TGTTTAATTT are within error of each other in switch fluorescence ratio: 1.01 ± 0.026 for the first, 1.03 ± 0.072 for the second.

TTGGAAATTT and TTGTAAGGTC are within error of each other in switch fluorescence ratio: 1.05 ± 0.17 for the first, 1 ± 0.031 for the second.

TTAGATAGGT and TTGGTTTGTG are within error of each other in switch fluorescence ratio: 1.02 ± 0.062 for the first, 1.01 ± 0.035 for the second.

Going from TATGAGTAAT to TTCCGTTCAG, the switch fluorescence ratio rises from 0.9866 ± 0.0093 to 1.03 ± 0.0075.

First: ATATATTGCG
Second: ACTTTTTTGA
The switch fluorescence ratio of the first is higher: 1.016 ± 0.0031 for the first, 1.005 ± 0.0056 for the second.

GTCCGGGGTT and AAGTTGAAGG are within error of each other in switch fluorescence ratio: 0.994 ± 0.021 for the first, 1 ± 0.013 for the second.

TTAAAATGTG and TCTTTTAGTA are within error of each other in switch fluorescence ratio: 1.04 ± 0.059 for the first, 0.991 ± 0.035 for the second.

TACAAGGGCA and GGGAAAGCG are within error of each other in switch fluorescence ratio: 1.01 ± 0.037 for the first, 1.04 ± 0.036 for the second.

Going from ATACAGGGTG to TGAGTTAAGT, the switch fluorescence ratio falls from 1.24 ± 0.019 to 0.997 ± 0.01.

Going from CTGTGCGCCC to GCCGTATGCT, the switch fluorescence ratio falls from 1.09 ± 0.058 to 0.9859 ± 0.0092.

GGAGGGGGGC and GACCGCTGGT are within error of each other in switch fluorescence ratio: 1.09 ± 0.16 for the first, 0.996 ± 0.039 for the second.

Compared with TTTTAATTCG, TCATAATGAT is lower in switch fluorescence ratio: 1.057 ± 0.0035 for the first, 1.005 ± 0.0032 for the second.

TTAGGATGTA and AGTTAGGGTC are within error of each other in switch fluorescence ratio: 1.005 ± 0.0095 for the first, 1 ± 0.012 for the second.

GTCCAAGGGT and ACTTGAGGGT are within error of each other in switch fluorescence ratio: 1.01 ± 0.035 for the first, 1.05 ± 0.094 for the second.

TGTATTTGGG and TTTTATAAAG are within error of each other in switch fluorescence ratio: 0.991 ± 0.013 for the first, 1 ± 0.022 for the second.

ATAATACGCC and TACGGGGGAA are within error of each other in switch fluorescence ratio: 1.17 ± 0.013 for the first, 1.26 ± 0.31 for the second.

First: TGCAGGGTTT
Second: AAAAGATGGG
The switch fluorescence ratio of the first is lower: 0.9906 ± 0.0082 for the first, 1.02 ± 0.0016 for the second.

Compared with TGTTATTTCA, GCCAAAGACA is lower in switch fluorescence ratio: 1.02 ± 0.0065 for the first, 0.9573 ± 0.0053 for the second.

TAGAGCTGCA and ACCGGGGGAG are within error of each other in switch fluorescence ratio: 1.02 ± 0.026 for the first, 0.984 ± 0.02 for the second.

GTGGAGGGTG and TTTCAAAGAT are within error of each other in switch fluorescence ratio: 1.05 ± 0.035 for the first, 1.22 ± 0.41 for the second.

Compared with GCCAGGAAAA, GGGTACTAGT is higher in switch fluorescence ratio: 0.957 ± 0.053 for the first, 1.05 ± 0.023 for the second.

AAGTACGCTG and GCGGCGGGGA are within error of each other in switch fluorescence ratio: 1 ± 0.11 for the first, 1.01 ± 0.039 for the second.

TATGTCTCGC and AGGCGACATT are within error of each other in switch fluorescence ratio: 0.995 ± 0.044 for the first, 0.9819 ± 0.0056 for the second.

CGTGATTTGA and GCAGTTTTAG are within error of each other in switch fluorescence ratio: 0.986 ± 0.014 for the first, 0.999 ± 0.027 for the second.

TTCTACTTTG and CTAACTGGCA are within error of each other in switch fluorescence ratio: 1.035 ± 0.0074 for the first, 1.048 ± 0.009 for the second.

GAAATATAAT and TGGGCTGGCT are within error of each other in switch fluorescence ratio: 1.012 ± 0.0066 for the first, 1 ± 0.023 for the second.

TTGGGGGCGG and ACGGGTATTG are within error of each other in switch fluorescence ratio: 1.01 ± 0.015 for the first, 1.02 ± 0.034 for the second.

Going from GAGTCAATTT to GCCAGCCGAC, the switch fluorescence ratio rises from 1.0118 ± 0.00063 to 1.2 ± 0.032.

Going from TGGGGCAACG to ACCTGCAATG, the switch fluorescence ratio rises from 0.979 ± 0.034 to 2.43 ± 0.2.

ATTATTTTAT and AGCACGGGTT are within error of each other in switch fluorescence ratio: 1.05 ± 0.069 for the first, 1.21 ± 0.3 for the second.

Going from TTTTCAATCT to TTGCTCACTT, the switch fluorescence ratio rises from 0.9933 ± 0.0073 to 1.04 ± 0.029.

First: ACCGAGCAAG
Second: TGGCGTGGGA
The switch fluorescence ratio of the first is higher: 4.12 ± 0.19 for the first, 1 ± 0.035 for the second.

TCAATGGGGG and GGGGGAAGGT are within error of each other in switch fluorescence ratio: 0.985 ± 0.062 for the first, 0.982 ± 0.032 for the second.

TATGCCTGTG and TAAGTACCGG are within error of each other in switch fluorescence ratio: 1.01 ± 0.036 for the first, 1.06 ± 0.038 for the second.

First: GGGTGTTTGG
Second: GAAATGCGGC
The switch fluorescence ratio of the first is higher: 1.03 ± 0.026 for the first, 0.97935 ± 0.00044 for the second.

Compared with GCCTGAGAGC, TAAGAAGGGG is higher in switch fluorescence ratio: 0.9754 ± 0.0021 for the first, 1.02 ± 0.023 for the second.

CTTTGTGATA and TTTGAGAAGA are within error of each other in switch fluorescence ratio: 1.04 ± 0.025 for the first, 1.02 ± 0.012 for the second.

ACTGTTCTCG and AGGGGAGGTA are within error of each other in switch fluorescence ratio: 1.01 ± 0.046 for the first, 0.965 ± 0.021 for the second.

AGGCATATGG and TTTCATTTGT are within error of each other in switch fluorescence ratio: 0.993 ± 0.057 for the first, 1.02 ± 0.075 for the second.

AAAAGGCTAA and TAGGAGGTCC are within error of each other in switch fluorescence ratio: 1 ± 0.0037 for the first, 0.96 ± 0.081 for the second.

Compared with GTGGGTAAAG, ATGTGTTGGT is higher in switch fluorescence ratio: 0.975 ± 0.01 for the first, 1 ± 0.011 for the second.

AAAACAAAAT showed a switch fluorescence ratio of 1.05 ± 0.026.
